Data as given in patent publication US20240041922A1, “METHODS AND COMPOSITIONS” (Monash University, priority 2020, published 2024).
“Also recorded” adds a separate entry of the source.

What was measured:
[1] = system: PAX7+ satellite cells; test: Primary mouse myoblast mono- and co-cultures, PAX7+ satellite cell proliferation (EdU); assay type: cell-based; conditions: myoblast monoculture (MB) and MB+3T3 co-culture, 24 h
Protocol: Larvae: Labelling and detection was carried out as previously described (Nguyen, P. D. et al. Muscle stem cells undergo extensive clonal drift during tissue growth via Meox1-mediated induction of G2 cell-cycle arrest. […] Cell culture: Cells were incubated for 1 h in media supplemented with 10 μM EdU. […] Cells were processed using the Click-iTTM EdU Alexa FluroTM 647 imaging Kit (Thermo Fisher) following the manufacturer's protocol. For isolation of primary mouse myoblasts, limb skeletal muscle from E17.5 C57/BL6J mice were minced and digested in 0.125% Trypsin at 37° C. for 20 min. […] Myoblasts were again depleted for fibroblasts prior to co-culturing on gelatin-coated 48 well plates in DMEM+20% FBS+10% L929-conditioned medium. 100,000 myoblasts were plated with either 7,500 MafB/c-Maf deficient (Maf-DKO) macrophages (Aziz, A., Soucie, E., Sarrazin, […]. MafB/c-Maf deficiency enables self-renewal of differentiated functional macrophages. […] For drug treatments, the media were supplemented with appropriate doses and cultured for 24 h.

[2] = system: C2C12 myoblasts; test: C2C12 myoblast proliferation (EdU incorporation); assay type: cell-based, mouse; conditions: 6 h in growth media
Protocol: Larvae: Labelling and detection was carried out as previously described (Nguyen, P. D. et al. Muscle stem cells undergo extensive clonal drift during tissue growth via Meox1-mediated induction of G2 cell-cycle arrest. […] Cell culture: Cells were incubated for 1 h in media supplemented with 10 μM EdU. […] Cells were processed using the Click-iTTM EdU Alexa FluroTM 647 imaging Kit (Thermo Fisher) following the manufacturer's protocol. The mouse muscle cell line […]. Serial passaging and differentiation of myogenic cells isolated from dystrophic mouse muscle. Nature 270, 725 (1977) were cultured in growth media (Dulbecco's Modified Eagle Medium (4.5 g/l D-Glucose, No L Glutamine, No Sodium Pyruvate (Gibco))+20% Fetal Bovine Solution-One Shot (Gibco)+1% Glut Max 100x (Gibco)). Cells were maintained at 37° C., 5% CO2. Cells at 70% confluence, passage 8 were extracted from T75 flasks with 0.025% Tryspin EDTA (Gibco), neutralised in growth media, spun at 180×g for 5 min to pellet cells. The cells were then resuspended in 10 ml of fresh growth media. 500 μl of cells were plated on a 8-well on cover glass II (Sarstedt) chamber slide at a density of 1×10^3 cells/ml. Cells were left 4 h at 37° C. to re-attach. For drug treatments, the media were supplemented with appropriate doses and cultured for 6 h.

[3] = system: wound-resident muscle stem cells; test: Larval zebrafish needle stab muscle injury, wound site proliferation (EdU); assay type: in vivo; conditions: needle stab injury; for wound site muscle stem cell proliferation: agent alone
Protocol: 4dpf larvae were anaesthetized in 0.01% tricaine (MS-222) (Sigma-Aldrich) in Ringer's solution. Mechanical injures were targeted either to the dorsal or ventral myotome above the cloaca when the larvae is oriented dorsal to the top, anterior to the left. Needle-stick injury was carried out as previously described (Gurevich, D. B. el al. Asymmetric division of clonal muscle stem cells co-ordinate muscle regeneration in vivo. Science 353 6295 aad9969 (2016)). Briefly, the myotome was subjected to a single 30-gauge needle puncture that generates an extensive injury with many damaged muscle fibres. For laser-induced injury, anaesthetised larvae were mounted in a thin layer of 1% low-melt agarose in Ringer's solution. Injuries were carried out using a UV-nitrogen laser pulsed through a coumarin 440 nm dye cell coupled to a Zeiss Axioplan microscope (MicroPoint Laser System, Andor Technology). On average a laser injury required pulses for 5-10 sec from laser beams focused through a 40× water immersion objective. For time-lapse analysis of the immediate response to injury, muscle fibre ablations were achieved using a SIM scanner (Olympus) at 790 nm and 200 msec dwell time at 100% laser power on an Olympus FVMPE-RS upright multi-photon microscope equipped with a 25×/1.05 water immersion objective. Injury-responding macrophages were tracked using the manual tracking plugin in Fiji.
Cell ablation was carried out as previously described (Pisharath, H. & Parsons, M. J. in Zebrafish 133-143 (Springer, 2009)) with minor modifications. Larvae at the appropriate stage were incubated in 5-10 mM metronidazole (Mtz) (Sigma-Aldrich) in Ringer's solution and daily refreshed until experimental end point. Drug treatments were carried out by incubating 4 dpf needle stick injured larvae in 5 and 10 μM cenicriviroc (CVC) (Med Chem Express) and 5 and 10 μM maraviroc (MVC) (Med Chem Express) in Ringer's solution immediately post injury and refreshed daily.
The effect of drug treatment on laser ablation muscle injury was assayed by treating larvae with 5 μM CVC for 2 h prior to injury and with larvae being maintained in the drug until experimental end point. […] Chemokine supplementation experiments were carried out in plasticware coated with 0.1% bovine serum albumin (BSA) overnight (rinsed in Ringer's solution prior to use) to minimise protein adsorption. Larvae were treated with 57 nM recombinant human visfatin (hrNAMPT(1)) (PeproTech), 57 nM recombinant murine CCL8/MCP-2 (mrCCL8) (PeproTech) and combinations with Mtz and CVC.
Larvae: Labelling and detection was carried out as previously described (Nguyen, P. D. et al. Muscle stem cells undergo extensive clonal drift during tissue growth via Meox1-mediated induction of G2 cell-cycle arrest. Cell Stem Cell 21, 107-119. e106 (2017))^55 with minor alteration. 6 dpf/2 dpi larvae were pulsed with 2.5 nM EdU (Thermo Fisher) for 1h and chased for a further 1.5 h prior to fixation. Cell culture: Cells were incubated for 1 h in media supplemented with 10 μM EdU. Following Edu pulse, C2C12 cells were fixed immediately, while primary mouse myoblast co-cultures were rinsed in PBS, replaced with media and incubated for a further 2 h following which the cells were fixed. Cells were processed using the Click-iT™ EdU Alexa Fluro™ 647 imaging Kit (Thermo Fisher) following the manufacturer's protocol.

[4] = molecular target: T1, human recombinant CCR5 (hrCCR5) (Homo sapiens, UniProt P51681); test: hrNAMPT binding to hrCCR5 (ELISA); conditions: hrNAMPT(1) 0-800 nM on hrCCR5-coated ELISA plates, BSA binding deducted; read-out: dissociation constant (KD)
T1 construct: purchased Abcam
Protocol: hrNAMPT binding to hrCCR5: ELISA plates (Medium binding, Greiner Bio-One) were coated with 1% BSA or 20 nM of GST-fused recombinant human CCR5 (hrCCR5, Abcam) in PBS overnight at 4° C. Wells were blocked for 1 h at room temperature with 1% BSA in PBS containing 0.05% Tween-20 (PBS-T). Wells were washed 3 times with PBS-T and further incubated with hrNAMPT(1) (Peprotech) at increasing concentration (0 nM to 800 nM) for 1 h in PBS-T with 0.1% BSA.

[5] = system: satellite cells; test: Satellite cell stimulation with NAMPTcif (proliferation); assay type: cell-based; conditions: compared to no stimulation control
Excerpt: (§1) As described above NAMPT, is a large homodimeric intracellular enzyme which acts as cytokine when released in the extracellular milieu. […] Moreover, the domain extends out from the core protein structure potentially facilitating receptor binding.

[6] = system: CCR5; test: NAMPTcif competition with NAMPT binding to CCR5
Excerpt: as §1

T1 sequence (P51681 whole entry): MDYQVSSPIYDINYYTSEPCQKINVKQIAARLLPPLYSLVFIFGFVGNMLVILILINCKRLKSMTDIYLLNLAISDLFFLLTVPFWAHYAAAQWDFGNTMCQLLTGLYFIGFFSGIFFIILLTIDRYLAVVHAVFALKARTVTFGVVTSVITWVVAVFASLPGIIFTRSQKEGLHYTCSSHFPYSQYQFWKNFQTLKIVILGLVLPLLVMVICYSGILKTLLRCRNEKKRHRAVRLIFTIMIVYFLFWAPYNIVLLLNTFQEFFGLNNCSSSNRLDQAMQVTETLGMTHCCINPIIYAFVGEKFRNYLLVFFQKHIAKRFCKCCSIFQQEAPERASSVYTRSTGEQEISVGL

B1: mrCCL4: recombinant murine CCL4/MIP-1β (PeproTech), cognate CCR5 ligand (protein)
chain: APMGSDPPTSCCFSYTSRQLHRSFVMDYYETSSLCSKPAVVFLTKRGRQICANPSEPWVTEYMSDLELN
satellite cell proliferation on supplementation [1]: enhanced proliferation; also recorded: mirrored the results of NAMPT addition
myoblast proliferation, factor added alone [2]: functioned to enhance C2C12 proliferation
myoblast proliferation, factor added alone ([2]; listed as CCL4/MIP-1β): could be recapitulated
proliferation external to the injury zone [3]: failed to demonstrate discrimination between injury region and sites external to the damage
wound site muscle stem cell proliferation [3]: functioned to enhance proliferation

B2: hrNAMPT(1): recombinant human visfatin (PeproTech) (protein)
chain: PPNTSKVYSYFECREKKTENSKLRKVKYEETVFYGLQYILNKYLKGKVVTKEKIQEAKDVYKEHFQDDVFNEKGWNYILEKYDGHLPIEIKAVPEGFVIPRGNVLFTVENTDPECYWLTNWIETILVQSWYPITVATNSREQKKILAKYLLETSGNLDGLEYKLHDFGYRGVSSQETAGIGASAHLVNFKGTDTVAGLALIKKYYGTKDPVPGYSVPAAEHSTITAWGKDHEKDAFEHIVTQFSSVPVSVVSDSYDIYNACEKIWGEDLRHLIVSRSTQAPLIIRPDSGNPLDTVLKVLEILGKKFPVTENSKGYKLLPPYLRVIQGDGVDINTLQEIVEGMKQKMWSIENIAFGSGGGLLQKLTRDLLNCSFKCSYVVTNGLGINVFKDPVADPNKRSKKGRLSLHRTPAGNFVTLEEGKGDLEEYGQDLLHTVFKNGKVTKSYSFDEIRKNAQLNIELEAAHH
Kd [4]: 172 ± 18 nM
myoblast proliferation, factor added alone [2]: dose dependent increase in myoblast proliferation; also recorded: comparable and significant dose dependent increases in myoblast proliferation

B3: hrNAMPT(2): recombinant human visfatin (Enzo Life Sciences) (protein)
chain: MNPAAEAEFNILLATDSYKVTHYKQYPPNTSKVYSYFECREKKTENSKLRKVKYEETVFYGLQYILNKYLKGKVVTKEKIQEAKDVYKEHFQDDVFNEKGWNYILEKYDGHLPIEIKAVPEGFVIPRGNVLFTVENTDPECYWLTNWIETILVQSWYPITVATNSREQKKILAKYLLETSGNLDGLEYKLHDFGYRGVSSQETAGIGASAHLVNFKGTDTVAGLALIKKYYGTKDPVPGYSVPAAEHSTITAWGKDHEKDAFEHIVTQFSSVPVSVVSDSYDIYNACEKIWGEDLRHLIVSRSTQAPLIIRPDSGNPLDTVLKVLEILGKKFPVTENSKGYKLLPPYLRVIQGDGVDINTLQEIVEGMKQKMWSIENIAFGSGGGLLQKLTRDLLNCSFKCSYVVTNGLGINVFKDPVADPNKRSKKGRLSLHRTPAGNFVTLEEGKGDLEEYGQDLLHTVFKNGKVTKSYSFDEIRKNAQLNIELEAAHH
myoblast proliferation, factor added alone [2]: dose dependent increase in myoblast proliferation; also recorded: comparable and significant dose dependent increases in myoblast proliferation

B4: mrCCL8: recombinant murine CCL8/MCP-2 (PeproTech), canonical CCR5 ligand (protein)
chain: GPDKAPVTCCFHVLKLKIPLRVLKSYERINNIQCPMEAVVFQTKQGMSLCVDPTQKWVSEYMEILDQKSQILQP
myoblast proliferation, factor added alone [2]: functioned to enhance C2C12 proliferation
myoblast proliferation, factor added alone ([2]; listed as CCL8/MCP-2): could be recapitulated
increase in cell proliferation external to the site of injury vs control [3]: 43.03±4.46%
proliferation external to the injury zone [3]: also increased proliferation external to the injury zone
wound site muscle stem cell proliferation [3]: functioned to increase proliferation in the wound site
increase in muscle stem cell proliferation within the wound site vs control ([3]; supplementation): 28.34±4.48%

B5: NAMPTcif: recombinantly produced C-terminal fragment of NAMPT, termed cytokine finger (cif) (protein)
chain: MSYVVTNGLGVNVFKDPVADPNKRSKKGRLSLHRTPAGNFVTLEEGKGDLEEYGHDLLHTVFKNGKVTKSYSFDEVRKNAQLNIEQDVAPHHHHHHH
satellite cell proliferation [5]: promotes proliferation in a dose-dependent manner
satellite cell proliferation ([5]; listed as cif): stimulates satellite cell proliferation in a dose-dependent manner
inhibition of NAMPT binding to CCR5 [6]: inhibits the binding of NAMPT to CCR5
